Reference: paper doi:10.1101/798769 (bioRxiv, 2019)

T1: NDN3 peptide (Plasmodium falciparum)
T1 chain: NANPNVDPNANP

T2: NANP trimer peptide (NANP3) (Plasmodium falciparum)
T2 chain: NANPNANPNANP

T3: DND3 peptide (Plasmodium falciparum)
T3 chain: NVDPNANPNVDP

T4: NPDP peptide (PfCSP aa 101-116) (Plasmodium falciparum NF54)
T4 chain: NPDPNANPNVDPNANP

T5: NANP 5.5-mer peptide, NP(NANP)5 (Plasmodium falciparum)
T5 chain: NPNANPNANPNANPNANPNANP

T6: KQPA peptide (PfCSP aa 95-109) (Plasmodium falciparum NF54)
T6 chain: KQPADGNPDPNANPN

T7: NANP pentamer peptide (NANP5) (Plasmodium falciparum (NF54))
T7 chain: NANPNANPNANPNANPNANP

B1: Fab fragment of mAb 4498 (Fab, V domains shown)
VH: QVQLVESGGGVVQPGRSLRLSCAASGFTFSIYGMHWVRQAPGKGLEWVALIWYDGTNKYYTDSVKGRFTISRDNSKNTLFLQMNSVRAEDTAVYYCARDAHYSDSSGYSSWGYFDYWGQGSLVTVSS
VL: EIVLTQSPATLSLSPGERATLSCRASQSVSSYLAWYQQKPGQAPRLLIFDASIRATGIPARFSGSGSGTDFTLTISSLEPEDFAVYYCQQRSNWYTFGQGTKLEIK
B2: mAb 4498 (recombinant human IgG1, kappa) (antibody, V domains shown)
VH: B1 VH
VL: B1 VL
B3: mAb 3246 (recombinant human IgG1, kappa) (antibody, V domains shown)
VH: QVQLVESGGGVVQPGRSLRLSCAASGFTFSGSGMHWVRQAPGKGLEWVAIIWYDGSNKFYADSVKGRFTISRDNSKNTLYLQMNSLRGEDTAVYYCARVGDGDGNYMDVWGKGTTVTVSS
VL: not shown
B4: mAb 2541 (recombinant human IgG1, kappa) (antibody, V domains shown)
VH: QVQLVESGGGVVQPGRSLRLSCAASGFTFSSYGMHWVRQTTGKGLEWVAIIWHDGSKKYYADSVKGRLTISRDNSKNTLYLQMNSLRVEDTALYYCARVGDYSDFKYGAFDIWGQGTMVTVSS
VL: DIQMTQSPSTLSASVGDRVTITCRASQSISSWLAWYQQKPGKAPNLLIYKASTLESGVPSRFSGSGSGTEFTLTISSLQPDDFATYYCQQYNSYWTFGQGTRVEIK
B5: Fab fragment of mAb 2541 (Fab, V domains shown)
VH: B4 VH
VL: B4 VL

How the values were obtained:
[1] = target: T1, NDN3 peptide; experiment: ITC
[2] = target: T2, NANP trimer peptide (NANP3); experiment: ITC
[3] = target: T3, DND3 peptide; experiment: ITC
[4] = target: T4, NPDP peptide (PfCSP aa 101-116); experiment: SPR
[5] = target: NVDP peptide (PfCSP aa 109-125) (Plasmodium falciparum NF54, UniProt P19597); experiment: SPR
NVDP peptide (PfCSP aa 109-125), sequence (P19597 109-128): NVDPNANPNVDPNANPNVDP

[6] = target: T5, NANP 5.5-mer peptide, NP(NANP)5; experiment: SPR
[7] = target: complete C-terminus of PfCSP (C-CSP) (Plasmodium falciparum NF54, UniProt P19597); experiment: SPR
[8] = target: T6, KQPA peptide (PfCSP aa 95-109); experiment: SPR
[9] = target: T7, NANP pentamer peptide (NANP5); experiment: crystal structure

Binder	binding result [1]	binding result [2]	binding result [4]	binding result [6]	further results
B1	binds	binds			binding result [3]: binds
B2			binds	binds	binding result [5]: binds
B3					binding result [7]: binds
B4			binds	binds	binding result [8]: binds
B5	no binding	binds			binding result [9]: binds
